In PMC4525287, “Auxiliary KCNE subunits modulate both homotetrameric Kv2.1 and heterotetrameric Kv2.1/Kv6.4 channels” (Scientific Reports, 2015):

Target: T1, unlabeled Kv2.1 (human, UniProt Q14721 1-858)
T1 sequence (looked up): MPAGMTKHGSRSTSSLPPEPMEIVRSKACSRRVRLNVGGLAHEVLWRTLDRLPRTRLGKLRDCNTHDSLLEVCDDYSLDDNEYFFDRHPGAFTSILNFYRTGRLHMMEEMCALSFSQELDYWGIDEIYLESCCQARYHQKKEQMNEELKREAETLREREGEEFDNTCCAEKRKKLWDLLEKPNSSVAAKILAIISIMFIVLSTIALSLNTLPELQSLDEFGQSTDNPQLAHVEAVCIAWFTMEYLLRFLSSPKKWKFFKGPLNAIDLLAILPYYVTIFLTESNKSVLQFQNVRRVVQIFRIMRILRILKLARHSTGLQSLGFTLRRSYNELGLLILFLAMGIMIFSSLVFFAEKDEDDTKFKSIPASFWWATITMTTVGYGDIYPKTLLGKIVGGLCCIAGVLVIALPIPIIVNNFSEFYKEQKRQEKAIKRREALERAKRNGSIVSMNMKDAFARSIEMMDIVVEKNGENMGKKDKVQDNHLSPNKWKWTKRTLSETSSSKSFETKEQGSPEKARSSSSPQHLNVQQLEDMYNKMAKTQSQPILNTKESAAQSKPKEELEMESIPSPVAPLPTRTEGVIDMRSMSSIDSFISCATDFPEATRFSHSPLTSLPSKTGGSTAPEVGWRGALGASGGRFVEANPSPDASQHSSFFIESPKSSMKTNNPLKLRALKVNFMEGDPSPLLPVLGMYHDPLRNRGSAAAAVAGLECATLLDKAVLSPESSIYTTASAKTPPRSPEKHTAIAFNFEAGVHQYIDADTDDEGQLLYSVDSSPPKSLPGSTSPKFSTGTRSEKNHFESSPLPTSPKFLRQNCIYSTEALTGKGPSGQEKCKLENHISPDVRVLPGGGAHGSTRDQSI
Experiment: cell-based or functional assay

B1: C-terminally YFP-labeled KCNE5 (natural protein, human, UniProt Q9UJ90 1-142, looked up)
chain: MNCSESQRLRTLLSRLLLELHHRGNASGLGAGPRPSMGMGVVPDPFVGREVTSAKGDDAYLYILLIMIFYACLAGGLILAYTRSRKLVEAKDEPSQACAEHEWAPGGALTADAEAAAGSQAEGRRQLASEGLPALAQGAERV
fast component of the activation of Kv2.1/Kv6.4 heterotetramers on co-expression of (untagged) KCNE5 with Kv2.1 and Kv6.4 in HEK293 cells, between +20 mV and +70 mV (whole cell current recordings): ~2 fold
